This experiment has as its target MVP3-5 (MVP residues 102-274), wild type (human, UniProt Q14764 102-274). The experiment in a line: SEC. Background: In gel filtration, larger molecules generally elute earlier.

MVP3-5 (MVP residues 102-274), wild type, sequence (Q14764 102-274): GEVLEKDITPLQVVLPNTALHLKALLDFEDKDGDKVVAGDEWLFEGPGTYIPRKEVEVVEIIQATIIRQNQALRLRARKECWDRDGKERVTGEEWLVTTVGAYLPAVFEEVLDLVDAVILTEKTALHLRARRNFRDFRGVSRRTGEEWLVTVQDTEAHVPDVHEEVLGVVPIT

B1: PARP4 MINT domain (residues 1562-1724), wild type (domain or fragment)
chain: VCIQHWQDAVPWTELLSLQTEDGFWKLTPELGLILNLNTNGLHSFLKQKGIQSLGVKGRECLLDLIATMLVLQFIRTRLEKEGIVFKSLMKMDDASISRNIPWAFEAIKQASEWVRRTEGQYPSICPRLELGNDWDSATKQLLGLQPISTVSPLHRVLHYSQG
B1: the binding result was “binds”.

The record behind these values is PMC12280208 (Nature Communications, 2025).
